Results on one substance are retold here after patent US20160031959A1.

This assay addresses recombinant BAX protein (UniProt Q07812). Description: fluorescence polarization, FITC-labeled peptide incubated with recombinant BAX at various concentrations, 60 min, room temperature. A general note: Polarisation of emitted light reports the rotation of a fluorescent probe.

Chain of recombinant BAX protein (Q07812 whole entry, form in doubt): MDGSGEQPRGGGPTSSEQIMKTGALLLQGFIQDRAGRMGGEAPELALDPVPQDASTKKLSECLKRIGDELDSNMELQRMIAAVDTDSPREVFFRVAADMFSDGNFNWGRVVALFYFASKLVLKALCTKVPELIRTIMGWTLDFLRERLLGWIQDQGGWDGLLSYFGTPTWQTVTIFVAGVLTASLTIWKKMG

Take BCL-2 BH4 SAHBA (peptide): the EC50 amounted to 4.6 nM.

The EC50 is the concentration that produces a half-maximal response.
